Assay results reported in patent US20160130361A1.
pKd: −log10 of the molar value.

Assays:
rFVIIIFc [1] = experiment: SPR (ProteOn XPR36), mean of triplicate
[2] = molecular target: BDD rFVIII (B domain deleted recombinant Factor VIII) (human) (UniProt P00451); experiment: SPR (ProteOn XPR36), mean of triplicate
[3] = molecular target: BDD rFVIII (B domain deleted recombinant Factor VIII) (human) (UniProt P00451); experiment: method not printed on the sheet or in the legend (affinities of Example 3 are by SPR); SD 0.0073 printed in the same row
rFVIIIFc [4] = experiment: method not printed on the sheet or in the legend (affinities of Example 3 are by SPR); SD 0.0023 printed in the same row
rFVIIIFc [5] = experiment: SPR, ProteOn XPR36; run 2 of 3 (middle panel) [continued]
[6] = molecular target: BDD rFVIII (B domain deleted recombinant Factor VIII) (human) (UniProt P00451); experiment: as above
rFVIIIFc [7] = experiment: SPR, ProteOn XPR36; run 1 of 3 (top panel) [continued]
[8] = molecular target: BDD rFVIII (B domain deleted recombinant Factor VIII) (human) (UniProt P00451); experiment: as above
rFVIIIFc [9] = experiment: SPR, ProteOn XPR36; run 3 of 3 (bottom panel) [continued]
[10] = molecular target: BDD rFVIII (B domain deleted recombinant Factor VIII) (human) (UniProt P00451); experiment: as above
rFVIIIFc [11] = experiment: SPR, ProteOn XPR36; run 3 of 3 (bottom panel)
[12] = molecular target: BDD rFVIII (B domain deleted recombinant Factor VIII) (human) (UniProt P00451); experiment: SPR, ProteOn XPR36; run 3 of 3 (bottom panel)
rFVIIIFc [13] = experiment: SPR, ProteOn XPR36; run 2 of 3 (middle panel)
[14] = molecular target: BDD rFVIII (B domain deleted recombinant Factor VIII) (human) (UniProt P00451); experiment: SPR, ProteOn XPR36; run 2 of 3 (middle panel)
rFVIIIFc [15] = experiment: SPR, ProteOn XPR36; run 1 of 3 (top panel)
[16] = molecular target: BDD rFVIII (B domain deleted recombinant Factor VIII) (human) (UniProt P00451); experiment: SPR, ProteOn XPR36; run 1 of 3 (top panel)

Chain of UniProt P00451 (P00451 other isoform, or with tags, fused parts or gaps): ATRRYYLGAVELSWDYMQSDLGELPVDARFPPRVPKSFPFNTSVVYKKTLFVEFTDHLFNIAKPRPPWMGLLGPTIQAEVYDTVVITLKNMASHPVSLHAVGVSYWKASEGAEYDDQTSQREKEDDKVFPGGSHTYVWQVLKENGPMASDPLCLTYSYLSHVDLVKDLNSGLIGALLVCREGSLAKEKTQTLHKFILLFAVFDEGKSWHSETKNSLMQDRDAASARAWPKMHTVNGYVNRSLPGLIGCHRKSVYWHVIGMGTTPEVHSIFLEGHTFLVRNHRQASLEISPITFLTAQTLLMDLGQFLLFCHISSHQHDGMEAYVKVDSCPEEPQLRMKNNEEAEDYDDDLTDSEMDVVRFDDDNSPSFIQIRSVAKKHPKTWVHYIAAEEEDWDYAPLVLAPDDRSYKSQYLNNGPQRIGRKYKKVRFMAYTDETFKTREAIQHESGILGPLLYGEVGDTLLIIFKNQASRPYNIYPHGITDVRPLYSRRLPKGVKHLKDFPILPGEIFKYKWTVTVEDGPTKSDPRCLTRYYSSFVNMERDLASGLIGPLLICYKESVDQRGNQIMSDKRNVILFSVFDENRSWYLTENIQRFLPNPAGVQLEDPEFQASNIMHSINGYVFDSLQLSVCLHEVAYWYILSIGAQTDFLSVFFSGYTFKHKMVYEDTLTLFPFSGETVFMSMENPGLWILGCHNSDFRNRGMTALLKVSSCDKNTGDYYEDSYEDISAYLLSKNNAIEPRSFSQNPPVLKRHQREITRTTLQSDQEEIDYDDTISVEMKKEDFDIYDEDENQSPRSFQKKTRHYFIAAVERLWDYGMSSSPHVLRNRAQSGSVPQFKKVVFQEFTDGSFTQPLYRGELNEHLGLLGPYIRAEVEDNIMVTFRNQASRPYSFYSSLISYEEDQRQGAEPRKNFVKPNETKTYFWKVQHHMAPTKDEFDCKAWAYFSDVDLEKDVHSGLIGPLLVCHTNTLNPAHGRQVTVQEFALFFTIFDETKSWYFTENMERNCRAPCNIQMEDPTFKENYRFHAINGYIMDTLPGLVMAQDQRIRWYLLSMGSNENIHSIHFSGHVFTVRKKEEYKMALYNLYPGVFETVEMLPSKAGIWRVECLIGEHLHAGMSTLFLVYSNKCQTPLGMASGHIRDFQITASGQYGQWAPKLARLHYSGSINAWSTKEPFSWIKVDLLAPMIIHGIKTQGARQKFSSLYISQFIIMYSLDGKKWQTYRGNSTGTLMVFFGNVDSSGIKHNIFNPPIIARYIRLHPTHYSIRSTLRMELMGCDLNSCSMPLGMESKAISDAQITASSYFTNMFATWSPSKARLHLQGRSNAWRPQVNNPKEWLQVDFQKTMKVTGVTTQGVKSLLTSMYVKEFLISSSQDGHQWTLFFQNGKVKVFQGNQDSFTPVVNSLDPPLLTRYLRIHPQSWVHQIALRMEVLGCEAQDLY

ESH4 (antibody)
pKd (rFVIIIFc [1]): 9.56
pKd [2]: 9.61

ESH8 (antibody)
pKd (rFVIIIFc [1]): 9.85
pKd [2]: 9.98

ESH8 Fab
pKd [3]: 9.98
pKd (rFVIIIFc [4]): 9.85

GMA012 (antibody)
pKd (rFVIIIFc [1]): 9.32
pKd [2]: 9.49

GMA8011 (antibody)
pKd (rFVIIIFc [5]): 10.09
koff (rFVIIIFc [5]): 0.00012 s⁻¹
kon (rFVIIIFc [5]): 1.49e+06 M⁻¹ s⁻¹
pKd [6]: 10.05
koff [6]: 0.000138 s⁻¹
kon [6]: 1.54e+06 M⁻¹ s⁻¹
pKd (rFVIIIFc [7]): 10.04
koff (rFVIIIFc [7]): 0.000133 s⁻¹
kon (rFVIIIFc [7]): 1.46e+06 M⁻¹ s⁻¹
pKd [8]: 10.07
koff [8]: 0.000131 s⁻¹
kon [8]: 1.53e+06 M⁻¹ s⁻¹
pKd (rFVIIIFc [9]): 10.04
koff (rFVIIIFc [9]): 0.000127 s⁻¹
kon (rFVIIIFc [9]): 1.4e+06 M⁻¹ s⁻¹
pKd [10]: 10.00
koff [10]: 0.000143 s⁻¹
kon [10]: 1.42e+06 M⁻¹ s⁻¹
pKd (rFVIIIFc [1]): 10.06
pKd [2]: 10.04

GMA8014 (antibody)
pKd (rFVIIIFc [11]): 9.92
koff (rFVIIIFc [11]): 0.000104 s⁻¹
kon (rFVIIIFc [11]): 865000 M⁻¹ s⁻¹
pKd [12]: 9.94
koff [12]: 0.000119 s⁻¹
kon [12]: 1.04e+06 M⁻¹ s⁻¹
pKd (rFVIIIFc [13]): 9.86
koff (rFVIIIFc [13]): 0.000104 s⁻¹
kon (rFVIIIFc [13]): 746000 M⁻¹ s⁻¹
pKd [14]: 9.93
koff [14]: 0.000131 s⁻¹
kon [14]: 1.12e+06 M⁻¹ s⁻¹
pKd (rFVIIIFc [15]): 9.90
koff (rFVIIIFc [15]): 0.000103 s⁻¹
kon (rFVIIIFc [15]): 809000 M⁻¹ s⁻¹
pKd [16]: 9.90
koff [16]: 0.000127 s⁻¹
kon [16]: 1e+06 M⁻¹ s⁻¹
pKd (rFVIIIFc [1]): 9.93
pKd [2]: 9.93

GMA8020 (antibody)
pKd (rFVIIIFc [5]): 10.13
koff (rFVIIIFc [5]): 0.000118 s⁻¹
kon (rFVIIIFc [5]): 1.59e+06 M⁻¹ s⁻¹
pKd [6]: 10.14
koff [6]: 0.000124 s⁻¹
kon [6]: 1.72e+06 M⁻¹ s⁻¹
pKd (rFVIIIFc [7]): 10.19
koff (rFVIIIFc [7]): 0.000102 s⁻¹
kon (rFVIIIFc [7]): 1.58e+06 M⁻¹ s⁻¹
pKd [8]: 10.11
koff [8]: 0.000127 s⁻¹
kon [8]: 1.65e+06 M⁻¹ s⁻¹
pKd (rFVIIIFc [9]): 10.18
koff (rFVIIIFc [9]): 0.00011 s⁻¹
kon (rFVIIIFc [9]): 1.66e+06 M⁻¹ s⁻¹
pKd [10]: 10.15
koff [10]: 0.000119 s⁻¹
kon [10]: 1.7e+06 M⁻¹ s⁻¹
pKd (rFVIIIFc [1]): 10.17
pKd [2]: 10.14
